Results taken from PMC8395977.

Assays:
[1] = biological target: iota carbonic anhydrase from Thalassiosira pseudonana (tpι-CA), full-length four-domain recombinant protein (Thalassiosira pseudonana); assay: SEC-SAXS; SWING beamline (SOLEIL), Agilent Bio SEC-5 500 Å column, 15 °C; molecular mass from SAXS-MoW
[2] = biological target: iota carbonic anhydrase from Thalassiosira pseudonana (tpι-CA), full-length four-domain recombinant protein (Thalassiosira pseudonana); assay: SEC; Superdex Increase S200 10 x 300 at 4 °C, samples loaded at 50 µM to 200 µM; Benzonase treatment where mentioned
[3] = biological target: iota carbonic anhydrase from Thalassiosira pseudonana (tpι-CA), full-length four-domain recombinant protein (Thalassiosira pseudonana); assay: cross-linking; 0.01% glutaraldehyde, 20 mM Na2HPO4 pH 8.0, 10 to 15 min at room temperature, then SDS-PAGE and Western blot
[4] = biological target: iota carbonic anhydrase from Thalassiosira pseudonana (tpι-CA), full-length four-domain recombinant protein (Thalassiosira pseudonana); assay: native MS; ESI-MS under non-denaturing conditions, 500 mM ammonium acetate pH 8, 8 µM protein, Q-ToF (Synapt G1), source 20 °C
[5] = biological target: tpι-CA domain variant ∆1 (composed of domain 1 only) (Thalassiosira pseudonana); assay: DOSY-NMR; 30 to 80 µM protein, 27 mM Tris, 45 mM NaCl, 10% D2O, pH 8, 298 K, 600 MHz; experimental Dt and Rh compared with HYDROPRO values of the models
[6] = biological target: tpι-CA domain variant ∆1-2 (composed of domains 1 and 2) (Thalassiosira pseudonana); assay: as above

iota carbonic anhydrase from Thalassiosira pseudonana (tpι-CA), full-length four-domain recombinant protein (enzyme)
stoichiometry N [1]: 4 | stoichiometry N [2]: 4 | stoichiometry N [3]: 4 | stoichiometry N [4]: 4

tpι-CA domain variant ∆1 (composed of domain 1 only) (domain or fragment)
stoichiometry N [5]: 2

tpι-CA domain variant ∆1-2 (composed of domains 1 and 2) (domain or fragment)
stoichiometry N [6]: 4
